The values that follow come from the nanobody polyreactivity screen of Harvey et al. (2022).

The data set in a line: yeast display, Sf9 membrane polyspecificity reagent, FACS + sequencing; frameworks hold sequencing errors. In outline:
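Nanobodies from a synthetic yeast display library (Saccharomyces cerevisiae BJ5465), induced 36–48 hours with galactose, were stained 1 hour at 4 °C with 10% biotinylated, detergent-solubilized Sf9 membrane reagent, enriched on streptavidin microbeads, then FACS-sorted. Anti-HA (expression) and streptavidin (reagent binding) fluorescence set low and high (top ~1%) gates. Polyreactivity labels come from the gate of origin. Genes were colony-PCR amplified, MiSeq 2 × 250 sequenced and filtered by CDR length.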
Regarding “QVQLVESGGGLVQVGGSLRLICAASGGIFSGNAMGWYRQAPGKERELVAGITNGGRTTYADSVKGRFTISRDNAKNTVYLQMNSLKPEDTAVYYCAAGKIGRRGHQNRLDLDYWGQGTQVTVSS”, the “polyreactivity (PSR sort gate)” value is reported as “low polyreactivity”.
In the case of “QVQLVESGGGLVQVGGSLRLSCAASGGIFCGNSMGWYRQAPGKERDLVAAISWDASTYYEDTVKGRFTISRDNAMNTVYLQMNSLKPEDTAVYYCNADIPYYFVYDAYDYWGQGTQVNVSS” it was “low polyreactivity”.
As for “QVQLVESGGGLVRAGGSLRLSCAASGFVYYVMGWYRQAPGKERELVAAISKGGGRTYYADSVKGRFTISRDNAKNTVYLQMNSLKPEDTAVYYCAAAFWRITRYGMDYWGQGTQVTVSS”, the “polyreactivity (PSR sort gate)” value is listed as “high polyreactivity”.
“QVQLVESGGGSVQAGGRLRLRCAASGLIFYYYAMGWYRQAPGKERELVADIDRGGDTYYADSVKGRFTISRDNAKNNVYLQMNSLKPEDTEVYYCAAVDSYGYVPVFGYWGQGTQVTVSS”: the “polyreactivity (PSR sort gate)” value is recorded as “low polyreactivity”.
In the case of “QVQLVESGGGSVQAGGSLRLSCAASGFTFRYYAMGWYRQAPGKERELVAGISSRGGSTYYADSVKGRFTISRDNAKNTVYLQMNSLKPEDTAVYYCATERFLLGLGYDYWGQGTQVTVSS” it was “high polyreactivity”; in that of “QVQLVESGGGSVQAGGSLRLSCAASGFTFRYYAMGWYRQAPGKERELVARISYSGTSTYYADSVKGRFTISRDNAKNTVYLQMNSLKPEDTAVYYCAKLHRTYRQYIYDYWGQGTQVTVSS”, “high polyreactivity”; in that of “QVQLVESGGGSVQAGGSLRLSCAASGRTFVFNAMGWYRQAPGKESELVAGISGSGGSTYYAESVKGRFTISRDNAKNNVYLQMNSLKPEDTAVYYCANTFPRKELDQESVSGLGYWGQGTQVTVSS”, “low polyreactivity”.
With “QVQLVESGGGSVQAGGSLRLSCAASGRTFYGYAMGWYRQAPGKERELGASISRDGSTNYADSVKGRFTISRDNAKNTVYLQMTSLKPEDTAVYYCAADIWYYRYPIYYYSYDYWGQGTQVNVSS” the entry was “low polyreactivity”; with “QVQLVESGGGSVQAGGSLRLSCAASGSIFAQYTMGWYRQAPGKERELVAVISINGVSTYYADSVKGRFTISRDNAKNTVYLQMNSLKPEDTAVYYCNAGISPYEALGYWGQGTQVTVSS”, “low polyreactivity”.
In the case of “QVQLVESGGGSVQAGGSLRLSCAASGSTFRYYAMGWYRQAPGKERELVARITSRAGRTYYADSVKGRFTISRDNAKNTVYLQMNSLKPEDTAVYYCNTRDFSGYVHALSLYDYWGQGTQVTVSS” it was “high polyreactivity”; in that of “QVQLVESGGGSVQAGGSLRLSCSASGIIFWYYTMGRNRQAPGKERELVAAISCSSGITYYADSVKGRFTISRDNSKNTVYLQMNSLKPEDTAVYYCAARKFFWRSNYDYWGQGTQVTVSS”, “low polyreactivity”; in that of “QVQLVESGGGVVHAGGSLRLSCAASGRIFRKYAMGWYRQAPGKESEFVAAITWSGGSTYYADSVKGRFTISRDNAKNTVYLQMNSLKPEDTAVYYCNAENGYSWDVFSDYWGQGTQVTVSS”, “low polyreactivity”.
“QVQLVESGGGVVQAGCSLRISCAASGIFRKYAMGWYRQAPGKERELVAAITWGGGRTYYADSVKGRFTISRDNAKNTVYFQMNSLKPEDTAVYYCAAAKTGRGRGTTGYGYCGQGTQVTVSS”: the “polyreactivity (PSR sort gate)” value is “high polyreactivity”.
On to “QVQLVESGGGVVQAGCSLRLSCAASGFTFRTNAMGWYRQAPGIEREFVAAISWSGGSTYYADSVKGRFTISRDNAKNTVYLQMNSLKPEDTAVYYCNADPFHWYYTNMYYWGQGTQVTVSS”, for which the “polyreactivity (PSR sort gate)” value is “high polyreactivity”.
With “QVQLVESGGGVVQAGGRLGLSCAASGSTFSQNPMGWYRQAPGKERELVASISSGGSTHYADSVKGRFTISRDNAKNTVYLQMNSLKPEDTAVYYCTTDLPNYVPFIVVEAYNYWGQGTQVTVSS”, the “polyreactivity (PSR sort gate)” value is recorded as “low polyreactivity”.
Take “QVQLVESGGGVVQAGGRLRLSCAASGSIFTYYAMGWYRQAPGKERELVAAISYGGGSTYYADSVKGRFTISRDTAKNTVYLQMNSLKPEDTAVYYCNRVVGVKYGYWGQGTQVTVSS”: the “polyreactivity (PSR sort gate)” value is reported as “high polyreactivity”.
With “QVQLVESGGGVVQAGGSLLLSCAASGRIFWYYAMGWYRQAHGKERELVATITRGGNTYFADSVKGRFTISRDNAKNTVYLQMNSLKPEDNAVYYCAASQRYSVIYYGFSEYDYWGQGTQVTVSS” the entry was “high polyreactivity”; with “QVQLVESGGGVVQAGGSLRISCAASGSTFGFNAMGWYRQAPGKERELVAAINNSGDSTYYADSVKGRFTISRDNAKNTVYLQMNSLKPEDTAVYYCAAPYLGRYYKNGYWGQGTQVTVSS”, “low polyreactivity”; with “QVQLVESGGGVVQAGGSLRLICAASGSTFYINTMGWYRPAPGKERELVAAISWTGGRTYYADSVKGRFTISRDNAKNTVYLQLNSLKPEDTAVYYCAAYYNIPDRRRVGYDYWGQGTQVTVSS”, “high polyreactivity”.
With “QVQLVESGGGVVQAGGSLRLSCAASGITFEYNAMGWYRQAPGKERELVAAISLSSGSTYYADSVKGRFTISRDNAKNTVYLQMNCLKPEDTAVYYCNADWQSYGYLWHSSLYYYWGQGTQVTVSS”, the “polyreactivity (PSR sort gate)” value is on record as “low polyreactivity”.
Consider “QVQLVESGGGVVQAGGSLRLSCAASGMGWYRQAPGKERELVATITTGGTYADSVKGRFTISRDNAKNTVYLQMNSLKPEDTAVYYCAADGLGSVYYLRYNYWGQGTQVTVSS”, for which the “polyreactivity (PSR sort gate)” value is “low polyreactivity”.
With “QVQLVESGGGVVQAGGSLRLSCAASGRIFDIYDMGWYRQAPGKERELVAAITSGRNTYYADSVKGRFTISRDNAKNTVYLQMNSLKPEDTAVSYCAAYSYPPLLWSYDYWGQGTQVTVSS”, the “polyreactivity (PSR sort gate)” value is recorded as “low polyreactivity”.
For the sequence “QVQLVESGGGVVQAGGSLRLSCAASGRIFERNAMGSYRQSPVKERELVARITSGGGTYYADSVKGRFTISRDNAKNTVYLQMNSLKPEDSAVYYSAVQYLYRKYRRYDYWGLGTQVTVSS”, the “polyreactivity (PSR sort gate)” value was “high polyreactivity”.
Consider “QVQLVESGGGVVQAGGSLRLSCAASGRIFGYYAMGWYRQAPGTERELVAVISSGGSTYADSVKGRFTISRDNAKNPVYLQMNSLKPEDTAVYYCAARHYWSSYRTSRSRYDYWGQGTQVTVSS”, for which the “polyreactivity (PSR sort gate)” value is recorded as “high polyreactivity”.
On to “QVQLVESGGGVVQAGGSLRLSCAASGRIFNWYAMGWYRQAPGKEREFVAAINWNGDSTHYADSVKGRFTISRDNAKNTVYLLMNSLKPEDTAVYYCNARVFVTRSYYWGQGTQVNVSS”, for which the “polyreactivity (PSR sort gate)” value was “low polyreactivity”.
Take “QVQLVESGGGVVQAGGSLRLSCAASGRILRGYALGWYRPAPGTERELVAAITWRGGSTYYADSVKGRFTISRDNAKNTVYLQMNSLKPEDTAVYYCAADRAYRYEMDYWGQGTQVTVSS”: the “polyreactivity (PSR sort gate)” value was “high polyreactivity”.
In the case of “QVQLVESGGGVVQAGGSLRLSCAASGSIFDPYAMGWYRHARGKERELVAALNSDGSTNYADSVKGRFTISRDNAKNTDYLQLNSLKPEDTAVYYCAARTFTLRGDDSWGQGSQVTVSS” it was “low polyreactivity”.
As for “QVQLVESGGGVVQAGGSLRLSCAASGSIFPENARGWYRQAPGKERELVAAITSSDSSTYYADSVKGRFTISRDNAKNTVYLQMNSLKPEDTAVYYCAAYRVGFRFREYYWGLGTQVTVSS”, the “polyreactivity (PSR sort gate)” value is “low polyreactivity”.
In the case of “QVQLVESGGGVVQAGGSLRLSCAASGSIFPYNAMGWYRPAPGKERELVAVITSSGGSTYYADSVKGRFTISRDNAKNTVYLQMNSLKPEDTAVYYVAARGYNYYFGGYDYWGQGTQVTVSS” it was “low polyreactivity”; in that of “QVQLVESGGGVVQAGGSLRLSCAASGSPFGFYTMGGYRQAPGKERELVAAISWSTGRTYYADSVKGRFTISRDKAKNTVDLQMNSLKPEDTAVYYCAADYYWKLFHEPPAVYDYDYWGQGTQVTVSS”, “low polyreactivity”.
In the case of “QVQLVESGGGVVQAGGSLRLSCAASGSTFRPYAMGWYRQAPGKERELVAAITFNGDTYADSVKGRFTISRDNAKNTVYLQMNSLKPEDTAVYYCAARNWYYYLRPWTSVGGYYWGQGTQVNVSS” it was “high polyreactivity”; in that of “QVQLVESGGGVVQAGGSLRLSCAASGSTFYAYAMGWYRQAPGKERELVAGISKRVGRTYYADSVKGRFTISRDNAKNTVYLQRNSLKPEDTAVYYCAAQFYLFYEYEYWGQGTQVTVSS”, “high polyreactivity”; in that of “QVQLVESGGGVVQAGGSLRLSCAASGSTFYPYALGWYRQAPGKERELVAGITVIDGSTYYADSVKGRFTISRDNAKNTVYLQMNSLKPEDTAVYYCAVDAPNQVQEYGYWGQGTQVTVSS”, “low polyreactivity”.
In the case of “QVQLVESGGGVVQAGGSLRLSCAASGSTLRDYVMGWYRQAPGKERELVAAITSRVDDTYYADSVKGRFTISRDNAKNNVYLEMNRLKPEDTAVYYCAADYSVTLRIGGYYWFYAFDYWGQGTQVTVSS” it was “low polyreactivity”; in that of “QVQLVESGGGVVQAGGSLRLSCAASGTTFSWYAMGGYRQAPGKERVLVAAISSGGSTNYADSVKGRFTISRDNAKNTVYLQMNSLKPEDTAVYYCAAVWSRYLISYSTGWWFEYWGQGTQVTVSS”, “low polyreactivity”; in that of “QVQLVESGGGVVQAGGSLRLSCAATGFTFAANTKGWYRQPPGKERELVADISGRGDRTSYADSVKGRFTISRDNAKYTVYLQINSLKPEDTAVYYCAVDIFYYSNVHYYYWGQGTQVTVSS”, “low polyreactivity”.
With “QVQLVESGGGVVQAGGSLRLSCAATGSTFYSYAMGWYRQAPGKEREFVASITRSGVRTYYADSVKGRFTISRDNAKNTVYLQMNSLKPDDTAFYYCAAERYYFPRSYRYGYWGQGTQVTVSS”, the “polyreactivity (PSR sort gate)” value is “low polyreactivity”.
In the case of “QVQLVESGGGVVQAGGSLRLSCAGSGFTFIYYAMGWYRQAPGTERELVAAITTSRGRTDSADSVKGRVTISRDNAKNTVYLQMNSLKPEDTAVYYCNAVVYTKYYFIPWYPYDYWGHGTQVTVSS” it was “high polyreactivity”; in that of “QVQLVESGGGVVQAGGSLRLSCASSGRTFSRYTMGWYRQAPGKERELVAVITASGTSTYYADSVKGRFTISRDNAKYTVYLQMISQKPEDTAVYYCAAYYPTYYRYSSLTMNYWGQGTQVTVSS”, “high polyreactivity”.
With “QVQLVESGGLLVQAGGSLRLSCAASGSTFYYNDMGWYRQAPGKEREFVAAISSRGGSTYDADSVKGRFTISRDNAKNTVYLQMNSLKPEDTAVYYCAAKDRHRYDWGQGTQVTVSS” the entry was “high polyreactivity”.
